Results as given in the supplement of paper PMC10201428.
± gives the standard deviation of the averaged measurements.

How the values were obtained:
[1] = system: VchCAST RNA-guided transposition machinery (E. coli BL21(DE3) host, lacZ target); assay: relative integration efficiency (T-RL orientation) vs wild-type transposon end (log2 (normalized fold change)); transposon end mutated: right end (5 bp flank + 75 bp right end); higher = more efficient transposition
How it was run: (§1)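 In E. coli BL21(DE3), a T7-driven effector plasmid was paired with a pUC57 mini-transposon donor containing 1549 left-end or 1849 right-end barcoded transposon variants. Cells grew on plates with 0.1 mM IPTG at 37°C for 18 h. Relative integration efficiency was derived from Illumina reads of genomic integration junctions against input plasmids, as a log-transformed output/input barcode fold change normalised to reference barcodes.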

[2] = system: VchCAST RNA-guided transposition machinery (E. coli BL21(DE3) host, lacZ target); assay: relative integration efficiency (T-LR orientation) vs wild-type transposon end (log2 (normalized fold change)); transposon end mutated: right end (5 bp flank + 75 bp right end); higher = more efficient transposition
How it was run: as §1

Row | Sequence | relative integration efficiency (log2) [1] | relative integration efficiency (log2) [2]
1 | ACATTTGTTGATACACCCATAAATTGATATTGCCACCCATAAATTGATAATTATCACAACCATATATTGATATCTCCTCTGATCATAGTCAGACCAACATTGCTACGACCCGTATTCGCACCGACAC | -1.14 ± 0.14 | -0.478 ± 0.18
2 | ACATTTGTTGATACACCCATAAATTGATATTGCCACCCATAAATTGATAATTATCACACCCATAAATTGATAATTACTCTGATCATAGTCAGACCAACATTGCTACGACCCGTATTCGCACCGACAC | -0.597 ± 0.26 | -0.0383 ± 0.28
3 | ACATTTGTTGATACACCCATAAATTGATATTGCCACCCATAAATTGATAATTATCACACCCATAAATTGATATTGCCTCTGATCATAGTCAGACCAACATTGCTACGACCCGTATTCGCACCGACAC | -0.842 ± 0.076 | -0.216 ± 0.095
4 | ACATTTGTTGATACACCCATAAATTGATATTGCCACCCATAAATTGATAATTATCAGTGGGTATTTAACTATAACGCTCTGATCATAGTCAGACCAACATTGCTACGACCCGTATTCGCACCGACAC | -1.42 ± 0.14 | 2.03 ± 0.071
5 | ACATTTGTTGATACACCCATAAATTGATATTGCCACCCATAAATTGATATTGCTCACAACCATAAAATGATAATTACTCTGATCATAGTCAGACCAACATTGCTACGACCCGTATTCGCACCGACAC | -0.874 ± 0.16 | -0.156 ± 0.22
6 | ACATTTGTTGATACACCCATAAATTGATATTGCCACCCATAAATTGATATTGCTCACAACCATAAAGTGATATTTACTCTGATCATAGTCAGACCAACATTGCTACGACCCGTATTCGCACCGACAC | -0.811 ± 0.21 | 0.0649 ± 0.043
7 | ACATTTGTTGATACACCCATAAATTGATATTGCCACCCATAAATTGATATTGCTCACAACCATAAGTTGATATTTTCTCTGATCATAGTCAGACCAACATTGCTACGACCCGTATTCGCACCGACAC | -1.05 ± 0.16 | -0.179 ± 0.051
8 | ACATTTGTTGATACACCCATAAATTGATATTGCCACCCATAAATTGATATTGCTCACAACCATATATTGATATCTCCTCTGATCATAGTCAGACCAACATTGCTACGACCCGTATTCGCACCGACAC | -1.05 ± 0.22 | 0.239 ± 0.14
9 | ACATTTGTTGATACACCCATAAATTGATATTGCCACCCATAAATTGATATTGCTCACACCCATAAATTGATAATTACTCTGATCATAGTCAGACCAACATTGCTACGACCCGTATTCGCACCGACAC | -1.21 ± 0.15 | 0.226 ± 0.19
10 | ACATTTGTTGATACACCCATAAATTGATATTGCCACCCATAAATTGATATTGCTCACACCCATAAATTGATATTGCCTCTGATCATAGTCAGACCAACATTGCTACGACCCGTATTCGCACCGACAC | -0.939 ± 0.095 | 0.0807 ± 0.15
11 | ACATTTGTTGATACACCCATAAATTGATATTGCCACCCATAAATTGATATTGCTCAGTGGGTATTTAACTATAACGCTCTGATCATAGTCAGACCAACATTGCTACGACCCGTATTCGCACCGACAC | -1.66 ± 0.34 | 2.19 ± 0.12
12 | ACATTTGTTGATACATCCATAAAATGATAATTACAGCCATAAATTGATAATTATCACAGCCATAAATTGATATTGCCTCTGATCATAGTCAGACCAACATTGCTACGACCCGTATTCGCACCGACAC | -0.851 ± 0.072 | -0.607 ± 0.2
13 | ACATTTGTTGATACATGCATAAAATGATAATTACACCCATAAATTGATAATTATCACACCCATAAATTGATATTGCCTCTGATCATAGTCAGACCAACATTGCTACGACCCGTATTCGCACCGACAC | -0.321 ± 0.046 | -0.66 ± 0.08
14 | ACATTTGTTGATACATGGTTAAAATGATAATTACACCCATAAATTGATAATTATCACACCCATAAATTGATATTGCCTCTGATCATAGTCAGACCAACATTGCTACGACCCGTATTCGCACCGACAC | -1.62 ± 0.088 | -2.05 ± 0.37
15 | ACATTTGTTGATACCACCATAAAATGATAATTACACCCATACATTGATAATTATCACACCCAATTTAACTATAACGCTCTGATCATAGTCAGACCAACATTGCTACGACCCGTATTCGCACCGACAC | -2.1 ± 0.38 | 0.947 ± 0.23
16 | ACATTTGTTGATACCACCATAAAATGATAATTACACCCCTAAATTGATAATTATCACACCCAATTTAACTATAACGCTCTGATCATAGTCAGACCAACATTGCTACGACCCGTATTCGCACCGACAC | -2.41 ± 0.33 | 0.973 ± 0.2
17 | ACATTTGTTGATACCACCATAAAATGATAATTACACCCCTACATTGATAATTATCACACCCAATTTAACTATAACGCTCTGATCATAGTCAGACCAACATTGCTACGACCCGTATTCGCACCGACAC | -3.75 ± 0.28 | -0.284 ± 0.22
18 | ACATTTGTTGATACCACCATAAAATGATAATTACCCCCATAAATTGATAATTATCACCCCCATAAATTGATATTGCCTCTGATCATAGTCAGACCAACATTGCTACGACCCGTATTCGCACCGACAC | 0.364 ± 0.15 | 1.35 ± 0.29

Row | Sequence | relative integration efficiency (log2) [1] | relative integration efficiency (log2) [2]
19 | ACATTTGTTGATACCACCATAAAATGATAATTCCACCCATAAATTGATAATTATCACACCCAATTTAACTATAACGCTCTGATCATAGTCAGACCAACATTGCTACGACCCGTATTCGCACCGACAC | -1.1 ± 0.17 | 2.52 ± 0.15
20 | ACATTTGTTGATACCACCATAAAATGATAATTCCACCCATACATTGATAATTATCACACCCAATTTAACTATAACGCTCTGATCATAGTCAGACCAACATTGCTACGACCCGTATTCGCACCGACAC | -2.81 ± 0.42 | 0.789 ± 0.33
21 | ACATTTGTTGATACCACCATAAAATGATAATTCCACCCCTAAATTGATAATTATCACACCCAATTTAACTATAACGCTCTGATCATAGTCAGACCAACATTGCTACGACCCGTATTCGCACCGACAC | -2.92 ± 0.31 | 0.417 ± 0.16
22 | ACATTTGTTGATACCACCATAAAATGATAATTCCACCCCTACATTGATAATTATCACACCCAATTTAACTATAACGCTCTGATCATAGTCAGACCAACATTGCTACGACCCGTATTCGCACCGACAC | -3.78 ± 0.24 | -0.121 ± 0.44
23 | ACATTTGTTGATACCACCATAAAATGGTAATTACACCCATAAATTGATAATTATCACACCCAATTTAACTATAACGCTCTGATCATAGTCAGACCAACATTGCTACGACCCGTATTCGCACCGACAC | -1.38 ± 0.13 | 2.15 ± 0.17
24 | ACATTTGTTGATACCACCATAAAATGGTAATTACACCCATACATTGATAATTATCACACCCAATTTAACTATAACGCTCTGATCATAGTCAGACCAACATTGCTACGACCCGTATTCGCACCGACAC | -2.87 ± 0.24 | 0.455 ± 0.2
25 | ACATTTGTTGATACCACCATAAAATGGTAATTACACCCCTAAATTGATAATTATCACACCCAATTTAACTATAACGCTCTGATCATAGTCAGACCAACATTGCTACGACCCGTATTCGCACCGACAC | -3.42 ± 0.33 | -0.273 ± 0.24
26 | ACATTTGTTGATACCACCATAAAATGGTAATTACACCCCTACATTGATAATTATCACACCCAATTTAACTATAACGCTCTGATCATAGTCAGACCAACATTGCTACGACCCGTATTCGCACCGACAC | -4.23 ± 0.31 | -0.988 ± 0.042
27 | ACATTTGTTGATACCACCATAAAATGGTAATTCCACCCATAAATTGATAATTATCACACCCAATTTAACTATAACGCTCTGATCATAGTCAGACCAACATTGCTACGACCCGTATTCGCACCGACAC | -1.38 ± 0.23 | 2.06 ± 0.076
28 | ACATTTGTTGATACCACCATAAAATGGTAATTCCACCCATACATTGATAATTATCACACCCAATTTAACTATAACGCTCTGATCATAGTCAGACCAACATTGCTACGACCCGTATTCGCACCGACAC | -3.16 ± 0.49 | 0.278 ± 0.23
29 | ACATTTGTTGATACCACCATAAAATGGTAATTCCACCCCTAAATTGATAATTATCACACCCAATTTAACTATAACGCTCTGATCATAGTCAGACCAACATTGCTACGACCCGTATTCGCACCGACAC | -3.4 ± 0.27 | -0.252 ± 0.21
30 | ACATTTGTTGATACCACCATAAAATGGTAATTCCACCCCTACATTGATAATTATCACACCCAATTTAACTATAACGCTCTGATCATAGTCAGACCAACATTGCTACGACCCGTATTCGCACCGACAC | -4.47 ± 0.45 | -0.833 ± 0.022
31 | ACATTTGTTGATACCACCATCAAATGATAATTACACCCATAAATTGATAATTATCACACCCAATTTAACTATAACGCTCTGATCATAGTCAGACCAACATTGCTACGACCCGTATTCGCACCGACAC | -1.91 ± 0.26 | 1.14 ± 0.18
32 | ACATTTGTTGATACCACCATCAAATGATAATTACACCCATACATTGATAATTATCACACCCAATTTAACTATAACGCTCTGATCATAGTCAGACCAACATTGCTACGACCCGTATTCGCACCGACAC | -3.87 ± 0.1 | -0.805 ± 0.15
33 | ACATTTGTTGATACCACCATCAAATGATAATTACACCCCTAAATTGATAATTATCACACCCAATTTAACTATAACGCTCTGATCATAGTCAGACCAACATTGCTACGACCCGTATTCGCACCGACAC | -4.72 ± 0.056 | -1.78 ± 0.038
34 | ACATTTGTTGATACCACCATCAAATGATAATTACACCCCTACATTGATAATTATCACACCCAATTTAACTATAACGCTCTGATCATAGTCAGACCAACATTGCTACGACCCGTATTCGCACCGACAC | -5.58 ± 0.31 | -2.42 ± 0.59
35 | ACATTTGTTGATACCACCATCAAATGATAATTCCACCCATAAATTGATAATTATCACACCCAATTTAACTATAACGCTCTGATCATAGTCAGACCAACATTGCTACGACCCGTATTCGCACCGACAC | -2.05 ± 0.11 | 1.36 ± 0.27
